One block for each binder: values may come before it. Starred links: 1 amine or outer side, 2 acyl side, 3 side chain; linkers in the order of their positions; H or OH if unused. Non-standard residues stand in square brackets, D forms with d. Groups on a side chain read outwards from the residue. No end group written: not given here. *: point of attachment. C20 diacid = O=C(O)CCCCCCCCCCCCCCCCCCC(=O)*; C18 diacid = O=C(O)CCCCCCCCCCCCCCCCC(=O)*; γGlu = O=C(O)[C@H](CCC(=O)[*:2])N[*:1]; αMeF = C[C@](N)(Cc1ccccc1)C(=O)O; AEEA = NCCOCCOCC(=O)O; Aib = CC(C)(N)C(=O)O
How the values were obtained:
[1] = target: human GLP-1 receptor (hGLP-1R) (human, UniProt P43220 24-463); experiment: cell-based or functional assay
[2] = target: human glucagon receptor (hGCGR) (human, UniProt P47871 26-477); experiment: cell-based or functional assay
Chain of human glucagon receptor (hGCGR) (P47871 26-477): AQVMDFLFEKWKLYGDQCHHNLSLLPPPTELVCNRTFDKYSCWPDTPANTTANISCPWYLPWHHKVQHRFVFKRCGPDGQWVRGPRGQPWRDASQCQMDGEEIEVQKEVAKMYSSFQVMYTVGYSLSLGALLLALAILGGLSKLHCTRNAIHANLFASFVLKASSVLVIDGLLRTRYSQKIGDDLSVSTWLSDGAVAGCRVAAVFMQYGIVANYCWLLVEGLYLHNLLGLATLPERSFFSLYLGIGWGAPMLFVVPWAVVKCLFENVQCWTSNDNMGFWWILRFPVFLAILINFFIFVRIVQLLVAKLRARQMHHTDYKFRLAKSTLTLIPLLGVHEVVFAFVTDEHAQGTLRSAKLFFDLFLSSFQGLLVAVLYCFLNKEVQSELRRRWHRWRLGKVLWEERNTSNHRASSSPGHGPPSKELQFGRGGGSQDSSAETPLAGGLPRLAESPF

B1: Peptide 460 (peptide)
peptide: H[Aib]QGTFTSDVSK[αMeF]LDKK([AEEA-AEEA-γGlu-C20 diacid])RAQDFVRWLLAE-NH2
hGLP-1R EC50 (pM) [1]: 117 pM
hGluc-R EC50 (pM) [2]: 66.5 pM

B2: Peptide 454 (peptide)
peptide: H[Aib]QGTFTSDVSK[αMeF]LDKK([AEEA-AEEA-γGlu-C20 diacid])RAQDFVRWLEA[Aib]G-NH2
modifications: N-terminus assumed
SMILES: CC(C)C[C@H](NC(=O)[C@H](Cc1c[nH]c2ccccc12)NC(=O)[C@H](CCCNC(=N)N)NC(=O)[C@@H](NC(=O)[C@H](Cc1ccccc1)NC(=O)[C@H](CC(=O)O)NC(=O)[C@H](CCC(N)=O)NC(=O)[C@H](C)NC(=O)[C@H](CCCNC(=N)N)NC(=O)[C@H](CCCCNC(=O)COCCOCCNC(=O)COCCOCCNC(=O)CC[C@H](NC(=O)CCCCCCCCCCCCCCCCCCC(=O)O)C(=O)O)NC(=O)[C@H](CCCCN)NC(=O)[C@H](CC(=O)O)NC(=O)[C@H](CC(C)C)NC(=O)[C@](C)(Cc1ccccc1)NC(=O)[C@H](CCCCN)NC(=O)[C@H](CO)NC(=O)[C@@H](NC(=O)[C@H](CC(=O)O)NC(=O)[C@H](CO)NC(=O)[C@@H](NC(=O)[C@H](Cc1ccccc1)NC(=O)[C@@H](NC(=O)CNC(=O)[C@H](CCC(N)=O)NC(=O)C(C)(C)NC(=O)[C@@H](N)Cc1c[nH]cn1)[C@@H](C)O)[C@@H](C)O)C(C)C)C(C)C)C(=O)N[C@@H](CCC(=O)O)C(=O)N[C@@H](C)C(=O)NC(C)(C)C(=O)NCC(N)=O
hGLP-1R EC50 (pM) [1]: 173 pM
hGluc-R EC50 (pM) [2]: 274 pM

B3: Peptide 451 (peptide)
peptide: H[Aib]QGTFTSDVSK[αMeF]LDKK([AEEA-AEEA-γGlu-C20 diacid])RARDFVLWLL[Aib]E-NH2
modifications: N-terminus assumed
SMILES: CC(C)C[C@H](NC(=O)[C@H](Cc1c[nH]c2ccccc12)NC(=O)[C@H](CC(C)C)NC(=O)[C@@H](NC(=O)[C@H](Cc1ccccc1)NC(=O)[C@H](CC(=O)O)NC(=O)[C@H](CCCNC(=N)N)NC(=O)[C@H](C)NC(=O)[C@H](CCCNC(=N)N)NC(=O)[C@H](CCCCNC(=O)COCCOCCNC(=O)COCCOCCNC(=O)CC[C@H](NC(=O)CCCCCCCCCCCCCCCCCCC(=O)O)C(=O)O)NC(=O)[C@H](CCCCN)NC(=O)[C@H](CC(=O)O)NC(=O)[C@H](CC(C)C)NC(=O)[C@](C)(Cc1ccccc1)NC(=O)[C@H](CCCCN)NC(=O)[C@H](CO)NC(=O)[C@@H](NC(=O)[C@H](CC(=O)O)NC(=O)[C@H](CO)NC(=O)[C@@H](NC(=O)[C@H](Cc1ccccc1)NC(=O)[C@@H](NC(=O)CNC(=O)[C@H](CCC(N)=O)NC(=O)C(C)(C)NC(=O)[C@@H](N)Cc1c[nH]cn1)[C@@H](C)O)[C@@H](C)O)C(C)C)C(C)C)C(=O)N[C@@H](CC(C)C)C(=O)NC(C)(C)C(=O)N[C@@H](CCC(=O)O)C(N)=O
hGLP-1R EC50 (pM) [1]: 895 pM
hGluc-R EC50 (pM) [2]: 503 pM

B4: Peptide 455 (peptide)
peptide: H[Aib]QGTFTSDVSK[αMeF]LDKK([AEEA-AEEA-γGlu-γGlu-C20 diacid])RAQDFVRWLL[Aib]E-NH2
modifications: N-terminus assumed
SMILES: CC(C)C[C@H](NC(=O)[C@H](Cc1c[nH]c2ccccc12)NC(=O)[C@H](CCCNC(=N)N)NC(=O)[C@@H](NC(=O)[C@H](Cc1ccccc1)NC(=O)[C@H](CC(=O)O)NC(=O)[C@H](CCC(N)=O)NC(=O)[C@H](C)NC(=O)[C@H](CCCNC(=N)N)NC(=O)[C@H](CCCCNC(=O)COCCOCCNC(=O)COCCOCCNC(=O)CC[C@H](NC(=O)CC[C@H](NC(=O)CCCCCCCCCCCCCCCCCCC(=O)O)C(=O)O)C(=O)O)NC(=O)[C@H](CCCCN)NC(=O)[C@H](CC(=O)O)NC(=O)[C@H](CC(C)C)NC(=O)[C@](C)(Cc1ccccc1)NC(=O)[C@H](CCCCN)NC(=O)[C@H](CO)NC(=O)[C@@H](NC(=O)[C@H](CC(=O)O)NC(=O)[C@H](CO)NC(=O)[C@@H](NC(=O)[C@H](Cc1ccccc1)NC(=O)[C@@H](NC(=O)CNC(=O)[C@H](CCC(N)=O)NC(=O)C(C)(C)NC(=O)[C@@H](N)Cc1c[nH]cn1)[C@@H](C)O)[C@@H](C)O)C(C)C)C(C)C)C(=O)N[C@@H](CC(C)C)C(=O)NC(C)(C)C(=O)N[C@@H](CCC(=O)O)C(N)=O
hGLP-1R EC50 (pM) [1]: 127 pM
hGluc-R EC50 (pM) [2]: 114 pM

B6: Peptide 453 (peptide)
peptide: H[Aib]QGTFTSDVSK[αMeF]LDKK([AEEA-AEEA-γGlu-C20 diacid])RAQDFVRWLLE[Aib]G-NH2
hGLP-1R EC50 (pM) [1]: 170 pM
hGluc-R EC50 (pM) [2]: 162 pM

Now from value to binder:

hGLP-1R EC50 (pM) [1]: 39.5 pM
hGluc-R EC50 (pM) [2]: 89.2 pM
B5: Peptide 462 (peptide)
peptide: H[Aib]QGTFTSDVSK[αMeF]LDTK([AEEA-AEEA-γGlu-C18 diacid])RARDFVQWLLEAG-OH
modifications: N-terminus assumed
SMILES: CC(C)C[C@H](NC(=O)[C@H](CC(C)C)NC(=O)[C@H](Cc1c[nH]c2ccccc12)NC(=O)[C@H](CCC(N)=O)NC(=O)[C@@H](NC(=O)[C@H](Cc1ccccc1)NC(=O)[C@H](CC(=O)O)NC(=O)[C@H](CCCNC(=N)N)NC(=O)[C@H](C)NC(=O)[C@H](CCCNC(=N)N)NC(=O)[C@H](CCCCNC(=O)COCCOCCNC(=O)COCCOCCNC(=O)CC[C@H](NC(=O)CCCCCCCCCCCCCCCCC(=O)O)C(=O)O)NC(=O)[C@@H](NC(=O)[C@H](CC(=O)O)NC(=O)[C@H](CC(C)C)NC(=O)[C@](C)(Cc1ccccc1)NC(=O)[C@H](CCCCN)NC(=O)[C@H](CO)NC(=O)[C@@H](NC(=O)[C@H](CC(=O)O)NC(=O)[C@H](CO)NC(=O)[C@@H](NC(=O)[C@H](Cc1ccccc1)NC(=O)[C@@H](NC(=O)CNC(=O)[C@H](CCC(N)=O)NC(=O)C(C)(C)NC(=O)[C@@H](N)Cc1c[nH]cn1)[C@@H](C)O)[C@@H](C)O)C(C)C)[C@@H](C)O)C(C)C)C(=O)N[C@@H](CCC(=O)O)C(=O)N[C@@H](C)C(=O)NCC(=O)O

hGLP-1R EC50 (pM) [1]: 133 pM
hGluc-R EC50 (pM) [2]: 80.3 pM
B7: Peptide 456 (peptide)
peptide: H[Aib]QGTFTSDVSK[αMeF]LDRK([AEEA-AEEA-γGlu-C20 diacid])RAQDFVRWLL[Aib]E-NH2
modifications: N-terminus assumed
SMILES: CC(C)C[C@H](NC(=O)[C@H](Cc1c[nH]c2ccccc12)NC(=O)[C@H](CCCNC(=N)N)NC(=O)[C@@H](NC(=O)[C@H](Cc1ccccc1)NC(=O)[C@H](CC(=O)O)NC(=O)[C@H](CCC(N)=O)NC(=O)[C@H](C)NC(=O)[C@H](CCCNC(=N)N)NC(=O)[C@H](CCCCNC(=O)COCCOCCNC(=O)COCCOCCNC(=O)CC[C@H](NC(=O)CCCCCCCCCCCCCCCCCCC(=O)O)C(=O)O)NC(=O)[C@H](CCCNC(=N)N)NC(=O)[C@H](CC(=O)O)NC(=O)[C@H](CC(C)C)NC(=O)[C@](C)(Cc1ccccc1)NC(=O)[C@H](CCCCN)NC(=O)[C@H](CO)NC(=O)[C@@H](NC(=O)[C@H](CC(=O)O)NC(=O)[C@H](CO)NC(=O)[C@@H](NC(=O)[C@H](Cc1ccccc1)NC(=O)[C@@H](NC(=O)CNC(=O)[C@H](CCC(N)=O)NC(=O)C(C)(C)NC(=O)[C@@H](N)Cc1c[nH]cn1)[C@@H](C)O)[C@@H](C)O)C(C)C)C(C)C)C(=O)N[C@@H](CC(C)C)C(=O)NC(C)(C)C(=O)N[C@@H](CCC(=O)O)C(N)=O

hGLP-1R EC50 (pM) [1]: 495 pM
hGluc-R EC50 (pM) [2]: 151 pM
B8: Peptide 452 (peptide)
peptide: H[Aib]QGTFTSDVSK[αMeF]LDKK([AEEA-AEEA-γGlu-C20 diacid])RALDFVRWLL[Aib]E-NH2
modifications: N-terminus assumed
SMILES: CC(C)C[C@H](NC(=O)[C@H](C)NC(=O)[C@H](CCCNC(=N)N)NC(=O)[C@H](CCCCNC(=O)COCCOCCNC(=O)COCCOCCNC(=O)CC[C@H](NC(=O)CCCCCCCCCCCCCCCCCCC(=O)O)C(=O)O)NC(=O)[C@H](CCCCN)NC(=O)[C@H](CC(=O)O)NC(=O)[C@H](CC(C)C)NC(=O)[C@](C)(Cc1ccccc1)NC(=O)[C@H](CCCCN)NC(=O)[C@H](CO)NC(=O)[C@@H](NC(=O)[C@H](CC(=O)O)NC(=O)[C@H](CO)NC(=O)[C@@H](NC(=O)[C@H](Cc1ccccc1)NC(=O)[C@@H](NC(=O)CNC(=O)[C@H](CCC(N)=O)NC(=O)C(C)(C)NC(=O)[C@@H](N)Cc1c[nH]cn1)[C@@H](C)O)[C@@H](C)O)C(C)C)C(=O)N[C@@H](CC(=O)O)C(=O)N[C@@H](Cc1ccccc1)C(=O)N[C@H](C(=O)N[C@@H](CCCNC(=N)N)C(=O)N[C@@H](Cc1c[nH]c2ccccc12)C(=O)N[C@@H](CC(C)C)C(=O)N[C@@H](CC(C)C)C(=O)NC(C)(C)C(=O)N[C@@H](CCC(=O)O)C(N)=O)C(C)C

hGLP-1R EC50 (pM) [1]: 32.7 pM
hGluc-R EC50 (pM) [2]: 36.9 pM
B9: Peptide 459 (peptide)
peptide: H[Aib]QGTFTSDVSK[αMeF]LDKK([AEEA-AEEA-γGlu-C18 diacid])RAQDFVRWLLA
modifications: not fully specified (C-terminus)

hGLP-1R EC50 (pM) [1]: 485 pM
hGluc-R EC50 (pM) [2]: 436 pM
B10: Peptide 465 (peptide)
peptide: H[Aib]QGTFTSDVSK[αMeF]LDLK([AEEA-AEEA-γGlu-γGlu-C18 diacid])RAQDFVQWLL[Aib]T-OH
modifications: N-terminus assumed
SMILES: CC(C)C[C@H](NC(=O)[C@H](CC(=O)O)NC(=O)[C@H](CC(C)C)NC(=O)[C@](C)(Cc1ccccc1)NC(=O)[C@H](CCCCN)NC(=O)[C@H](CO)NC(=O)[C@@H](NC(=O)[C@H](CC(=O)O)NC(=O)[C@H](CO)NC(=O)[C@@H](NC(=O)[C@H](Cc1ccccc1)NC(=O)[C@@H](NC(=O)CNC(=O)[C@H](CCC(N)=O)NC(=O)C(C)(C)NC(=O)[C@@H](N)Cc1c[nH]cn1)[C@@H](C)O)[C@@H](C)O)C(C)C)C(=O)N[C@@H](CCCCNC(=O)COCCOCCNC(=O)COCCOCCNC(=O)CC[C@H](NC(=O)CC[C@H](NC(=O)CCCCCCCCCCCCCCCCC(=O)O)C(=O)O)C(=O)O)C(=O)N[C@@H](CCCNC(=N)N)C(=O)N[C@@H](C)C(=O)N[C@@H](CCC(N)=O)C(=O)N[C@@H](CC(=O)O)C(=O)N[C@@H](Cc1ccccc1)C(=O)N[C@H](C(=O)N[C@@H](CCC(N)=O)C(=O)N[C@@H](Cc1c[nH]c2ccccc12)C(=O)N[C@@H](CC(C)C)C(=O)N[C@@H](CC(C)C)C(=O)NC(C)(C)C(=O)N[C@H](C(=O)O)[C@@H](C)O)C(C)C
